What all share (assay type): cell-based
Assay [1] deals with T1, CHRM2 (Homo sapiens, UniProt P08172).
T1 construct: The entire GPCR coding regions were cloned downstream of the CMV promoter and upstream of the ED; expressed in transfected cells; host or cells: HEK293 or CHOK1 cells, retroviral infection (pLNCX2)
Kind of assay: PathHunter β-arrestin2-EA / GPCR-ED enzyme fragment complementation, CHRM2-ED fusion. The note with it: saturating ligand. The text has this:
(§1) The following are the directions for performing the determinations of the response to inducing agents and comparing the prior art ED (pK1) to an ED of the subject invention (pK2):
(§2) The cells used were HEK293 and CHOK1 cells. Following substantially the procedures described in U.S. patent application Ser. No. 10/229,247, filed Aug. 27, 2002, and U.S. patent application Ser. No. 11/132,764 (Publication no. 2005/0287522), filed May 18, 2005, whose disclosures are specifically incorporated by reference, each of the cell lines was infected with retroviral constructs. The viral plasmid was the PLNCX2 vector from Clontech. The plasmid includes sufficient retroviral sequences to enable viral production in the appropriate packaging cell lines. The plasmid also includes the neomycin antibiotic resistance gene and a CMV promoter that is used to drive expression of the target ED fusion. […] The ED is fused at the intracellular terminus, i.e., C-terminus of the proteins.
(§3) Preparation of Detection Reagents—The detection reagents must be prepared as a working solution prior to use, and once prepared are stable for at least 24 hours at room temperature with no impact on assay performance. The detection reagents consist of the substrate and co-factors for chemiluminescence signal detection, as well as the reagents necessary for selective cell permeabilization. […]

Assay [2] addresses T2, PTHR2 (Homo sapiens, UniProt P49190).
T2 construct: The entire GPCR coding regions were cloned downstream of the CMV promoter and upstream of the ED; expressed in transfected cells; host or cells: HEK293 or CHOK1 cells, retroviral infection (pLNCX2)
Kind of assay: PathHunter β-arrestin2-EA / GPCR-ED enzyme fragment complementation, PTHR2-ED fusion. The note with it: PTHR2 fused to PK2 ED; saturating ligand.
Description: as §1, §2
Preparation of Detection Reagents—The detection reagents must be prepared as a working solution prior to use, and once prepared are stable for at least 24 hours at room temperature with no impact on assay performance. The detection reagents consist of the substrate and co-factors for chemiluminescence signal detection, as well as the reagents necessary for selective cell permeabilization. Working solution is prepared by combining PathHunter™ Cell Assay Buffer (DiscoveRx, Inc., Fremont, Calif.), Galacton Star® and Emerald II® reagent […]. reagents (ABI, Bedford, Mass.) at a ratio of 19:1:5. Sufficient reagent is provided in each kit to perform the indicated number of assays in a 384-well, full-volume microplate assuming an addition of 12 μl of detection reagent per well or in a 96-well, full-volume microplate assuming an addition of 50 μl of detection reagent per well. […]

Assay [3] addresses T3, P2RY6 (Homo sapiens, UniProt Q15077).
T3 construct: The entire GPCR coding regions were cloned downstream of the CMV promoter and upstream of the ED; expressed in transfected cells; host or cells: HEK293 or CHOK1 cells, retroviral infection (pLNCX2)
Put plainly: PathHunter β-arrestin2-EA / GPCR-ED enzyme fragment complementation, P2RY6-ED fusion. The note with it: saturating ligand.
Description: as §1, §2, §3

For assay [4], the target named is T4, CRTH2 (Homo sapiens, UniProt Q9Y5Y4).
T4 construct: The entire GPCR coding regions were cloned downstream of the CMV promoter and upstream of the ED; expressed in transfected cells; host or cells: HEK293 or CHOK1 cells, retroviral infection (pLNCX2)
Kind of assay: PathHunter β-arrestin2-EA / GPCR-ED enzyme fragment complementation, CRTH2-ED fusion. The note with it: saturating ligand.
Description: as §1, §2, §3

The target in assay [5] is T5, SSTR4 (Homo sapiens, UniProt P31391).
T5 construct: The entire GPCR coding regions were cloned downstream of the CMV promoter and upstream of the ED; expressed in transfected cells; host or cells: HEK293 or CHOK1 cells, retroviral infection (pLNCX2)
Put plainly: PathHunter β-arrestin2-EA / GPCR-ED enzyme fragment complementation, SSTR4-ED fusion. The note with it: saturating ligand.
Description: The cells used were HEK293 and CHOK1 cells. […] The viral plasmid was the PLNCX2 vector from Clontech. The plasmid includes sufficient retroviral sequences to enable viral production in the appropriate packaging cell lines. The plasmid also includes the neomycin antibiotic resistance gene and a CMV promoter that is used to drive expression of the target ED fusion. […] The ED is fused at the intracellular terminus, i.e., C-terminus of the proteins.
Preparation of Detection Reagents—The detection reagents must be prepared as a working solution prior to use, and once prepared are stable for at least 24 hours at room temperature with no impact on assay performance. The detection reagents consist of the substrate and co-factors for chemiluminescence signal detection, as well as the reagents necessary for selective cell permeabilization. Working solution is prepared by combining PathHunter™ Cell Assay Buffer (DiscoveRx, Inc., Fremont, Calif.), Galacton Star® and Emerald II® reagent to 25 μl of cells+compound. reagents (ABI, Bedford, Mass.) at a ratio of 19:1:5.
The fourth column indicates the fold induction for each of the constructs, where saturating conditions of the ligand were employed.

Assay [6] deals with T6, CCR6 (Homo sapiens, UniProt P51684).
T6 construct: The entire GPCR coding regions were cloned downstream of the CMV promoter and upstream of the ED; expressed in transfected cells; host or cells: HEK293 or CHOK1 cells, retroviral infection (pLNCX2)
Put plainly: PathHunter β-arrestin2-EA / GPCR-ED enzyme fragment complementation, CCR6-ED fusion. The note with it: saturating ligand.
Description: as §1, §2, §3

In assay [7] the target is T7, SALPR (Homo sapiens, UniProt Q9NSD7).
T7 construct: The entire GPCR coding regions were cloned downstream of the CMV promoter and upstream of the ED; expressed in transfected cells; host or cells: HEK293 or CHOK1 cells, retroviral infection (pLNCX2)
Kind of assay: PathHunter β-arrestin2-EA / GPCR-ED enzyme fragment complementation, SALPR-ED fusion. Conditions: saturating ligand.
Description: as §1, §2, §3

Assay [8] concerns the target T8, CCR4 (Homo sapiens, UniProt P51679).
T8 construct: The entire GPCR coding regions were cloned downstream of the CMV promoter and upstream of the ED; expressed in transfected cells; host or cells: HEK293 or CHOK1 cells, retroviral infection (pLNCX2)
Kind of assay: PathHunter β-arrestin2-EA / GPCR-ED enzyme fragment complementation, CCR4-ED fusion. The note with it: saturating ligand.
Description: as §1, §2, §3

T2 sequence (P49190 25-550, species assumed): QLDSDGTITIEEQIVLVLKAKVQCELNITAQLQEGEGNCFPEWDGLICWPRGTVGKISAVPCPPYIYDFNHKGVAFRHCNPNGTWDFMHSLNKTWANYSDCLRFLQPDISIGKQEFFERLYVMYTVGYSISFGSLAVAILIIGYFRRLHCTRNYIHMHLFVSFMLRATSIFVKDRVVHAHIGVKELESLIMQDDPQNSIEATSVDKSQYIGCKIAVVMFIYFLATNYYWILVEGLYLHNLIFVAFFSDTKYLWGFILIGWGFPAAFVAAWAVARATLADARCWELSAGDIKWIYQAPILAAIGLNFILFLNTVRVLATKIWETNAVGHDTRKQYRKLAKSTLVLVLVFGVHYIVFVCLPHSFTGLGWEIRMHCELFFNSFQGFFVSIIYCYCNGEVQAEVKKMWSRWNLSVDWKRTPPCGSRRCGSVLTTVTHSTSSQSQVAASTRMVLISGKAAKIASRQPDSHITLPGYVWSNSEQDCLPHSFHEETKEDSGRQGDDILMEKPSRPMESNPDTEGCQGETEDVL
T2 sequence (P32121 whole entry partner, species assumed): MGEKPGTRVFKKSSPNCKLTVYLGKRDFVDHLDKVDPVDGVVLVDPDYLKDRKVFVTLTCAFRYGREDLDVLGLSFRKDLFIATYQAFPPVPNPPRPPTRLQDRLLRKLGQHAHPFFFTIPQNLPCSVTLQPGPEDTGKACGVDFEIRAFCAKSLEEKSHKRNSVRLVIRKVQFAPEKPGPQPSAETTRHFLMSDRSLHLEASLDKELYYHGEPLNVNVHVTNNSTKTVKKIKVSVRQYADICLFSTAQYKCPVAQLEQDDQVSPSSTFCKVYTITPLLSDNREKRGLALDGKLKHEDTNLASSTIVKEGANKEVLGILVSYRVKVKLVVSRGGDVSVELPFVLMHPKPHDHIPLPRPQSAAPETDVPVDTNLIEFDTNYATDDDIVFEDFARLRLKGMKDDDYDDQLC
T4 sequence (Q9Y5Y4 whole entry, species assumed): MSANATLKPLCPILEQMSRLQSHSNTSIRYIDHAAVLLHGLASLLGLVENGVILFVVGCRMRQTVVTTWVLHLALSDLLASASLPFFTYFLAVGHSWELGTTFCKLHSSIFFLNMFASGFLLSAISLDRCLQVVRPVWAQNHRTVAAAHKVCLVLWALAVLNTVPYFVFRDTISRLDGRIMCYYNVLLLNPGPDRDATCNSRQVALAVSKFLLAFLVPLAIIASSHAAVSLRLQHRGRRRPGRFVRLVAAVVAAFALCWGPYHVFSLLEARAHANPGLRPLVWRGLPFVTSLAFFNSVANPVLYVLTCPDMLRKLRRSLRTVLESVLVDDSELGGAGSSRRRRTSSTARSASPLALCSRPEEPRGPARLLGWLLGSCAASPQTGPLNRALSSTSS
T4 sequence (P32121 whole entry partner, species assumed): as the sequence (P32121 whole entry partner, species assumed) above
T3 sequence (Q15077 whole entry, species assumed): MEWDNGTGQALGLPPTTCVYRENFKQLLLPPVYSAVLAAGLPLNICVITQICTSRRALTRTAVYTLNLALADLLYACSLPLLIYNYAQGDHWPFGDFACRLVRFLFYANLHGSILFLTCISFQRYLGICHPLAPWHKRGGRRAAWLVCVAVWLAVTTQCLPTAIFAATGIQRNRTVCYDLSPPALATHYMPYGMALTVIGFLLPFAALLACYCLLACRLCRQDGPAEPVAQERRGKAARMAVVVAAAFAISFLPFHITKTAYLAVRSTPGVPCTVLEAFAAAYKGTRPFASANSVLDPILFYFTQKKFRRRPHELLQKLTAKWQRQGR
T3 sequence (P32121 whole entry partner, species assumed): as the sequence (P32121 whole entry partner, species assumed) above
T8 sequence (P51679 whole entry): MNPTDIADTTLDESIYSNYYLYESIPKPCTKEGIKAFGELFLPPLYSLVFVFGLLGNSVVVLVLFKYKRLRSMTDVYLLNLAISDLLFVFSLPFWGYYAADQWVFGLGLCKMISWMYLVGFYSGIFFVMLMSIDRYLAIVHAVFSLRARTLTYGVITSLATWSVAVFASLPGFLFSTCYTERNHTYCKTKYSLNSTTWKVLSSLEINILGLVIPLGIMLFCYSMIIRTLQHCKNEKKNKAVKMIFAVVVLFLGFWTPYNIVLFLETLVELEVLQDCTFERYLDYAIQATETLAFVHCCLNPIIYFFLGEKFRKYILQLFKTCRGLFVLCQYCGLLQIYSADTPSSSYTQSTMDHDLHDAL
T8 sequence (P32121 whole entry partner): as the sequence (P32121 whole entry partner, species assumed) above
T5 sequence (P31391 whole entry, species assumed): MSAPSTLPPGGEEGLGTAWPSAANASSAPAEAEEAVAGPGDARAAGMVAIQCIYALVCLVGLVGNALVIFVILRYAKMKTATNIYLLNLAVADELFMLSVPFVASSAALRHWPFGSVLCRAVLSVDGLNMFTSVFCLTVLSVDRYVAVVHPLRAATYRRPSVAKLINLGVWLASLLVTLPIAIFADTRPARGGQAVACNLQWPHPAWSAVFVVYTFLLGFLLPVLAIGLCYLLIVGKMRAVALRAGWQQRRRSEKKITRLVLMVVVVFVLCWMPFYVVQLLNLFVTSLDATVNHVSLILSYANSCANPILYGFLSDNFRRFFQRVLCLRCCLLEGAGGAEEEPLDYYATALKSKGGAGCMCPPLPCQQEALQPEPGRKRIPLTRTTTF
T5 sequence (P32121 whole entry partner, species assumed): as the sequence (P32121 whole entry partner, species assumed) above
T7 sequence (Q9NSD7 whole entry, species assumed): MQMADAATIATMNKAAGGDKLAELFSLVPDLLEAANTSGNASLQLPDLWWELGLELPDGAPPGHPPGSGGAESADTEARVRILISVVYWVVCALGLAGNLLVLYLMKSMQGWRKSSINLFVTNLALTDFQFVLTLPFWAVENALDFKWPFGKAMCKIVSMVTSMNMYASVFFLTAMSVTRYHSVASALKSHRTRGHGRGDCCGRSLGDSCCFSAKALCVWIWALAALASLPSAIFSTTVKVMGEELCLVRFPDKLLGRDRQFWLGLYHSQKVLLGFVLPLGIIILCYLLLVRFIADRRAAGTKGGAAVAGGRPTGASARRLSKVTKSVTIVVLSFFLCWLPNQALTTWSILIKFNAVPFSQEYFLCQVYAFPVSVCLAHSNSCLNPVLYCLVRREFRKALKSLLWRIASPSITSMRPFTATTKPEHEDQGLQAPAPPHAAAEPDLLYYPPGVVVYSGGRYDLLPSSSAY
T7 sequence (P32121 whole entry partner, species assumed): as the sequence (P32121 whole entry partner, species assumed) above
T6 sequence (P51684 whole entry): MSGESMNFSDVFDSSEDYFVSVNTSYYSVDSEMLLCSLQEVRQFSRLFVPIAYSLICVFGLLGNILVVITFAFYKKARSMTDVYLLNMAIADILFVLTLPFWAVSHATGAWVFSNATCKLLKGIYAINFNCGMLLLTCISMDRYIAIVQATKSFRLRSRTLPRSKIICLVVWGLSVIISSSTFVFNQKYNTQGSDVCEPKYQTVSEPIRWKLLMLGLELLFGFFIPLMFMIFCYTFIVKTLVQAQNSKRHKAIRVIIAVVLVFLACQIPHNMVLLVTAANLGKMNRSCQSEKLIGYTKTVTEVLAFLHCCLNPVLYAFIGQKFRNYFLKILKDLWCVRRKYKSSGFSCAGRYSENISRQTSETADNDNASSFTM
T6 sequence (P32121 whole entry partner): as the sequence (P32121 whole entry partner, species assumed) above
T1 sequence (P08172 whole entry, species assumed): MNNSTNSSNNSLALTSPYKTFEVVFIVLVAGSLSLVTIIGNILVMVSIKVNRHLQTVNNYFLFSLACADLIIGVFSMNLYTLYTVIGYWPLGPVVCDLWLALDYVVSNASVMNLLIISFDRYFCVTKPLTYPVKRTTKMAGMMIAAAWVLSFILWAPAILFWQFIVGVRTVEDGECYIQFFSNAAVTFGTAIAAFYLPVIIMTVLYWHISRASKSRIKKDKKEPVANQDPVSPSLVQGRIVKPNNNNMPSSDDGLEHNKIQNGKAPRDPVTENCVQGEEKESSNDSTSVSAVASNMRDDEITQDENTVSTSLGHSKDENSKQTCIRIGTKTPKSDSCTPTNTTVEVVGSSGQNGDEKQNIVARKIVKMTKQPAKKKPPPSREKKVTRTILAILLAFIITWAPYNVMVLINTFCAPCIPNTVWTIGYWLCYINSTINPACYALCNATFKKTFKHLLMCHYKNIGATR
T1 sequence (P32121 whole entry partner, species assumed): as the sequence (P32121 whole entry partner, species assumed) above

For `C[N+](C)(C)CC#CCN1CCCC1=O` [Oxotremorine M], in assay [1] (CHRM2 fused to PK2 ED), the Fold induct. is recorded as 6.1 fold. In the case of TIP39, in assay [2], the Fold induct. was determined as 2.8 fold. The same measure, in the same setting: to PTH (1-34) belongs 72.9 fold. As for `O=c1ccn([C@@H]2O[C@H](COP(=O)(O)OP(=O)(O)O)[C@@H](O)[C@H]2O)c(=O)[nH]1` [UDP], the Fold induct. in assay [3] (P2RY6 fused to PK1 ED) came to 1.3 fold; in assay [3] (P2RY6 fused to PK2 ED) it was 1.9 fold.

For the molecule `CCCCC[C@H](O)/C=C/[C@H]1C(=O)C[C@H](O)[C@@H]1C/C=C\CCCC(=O)O` [Prostaglandin D2], the Fold induct. result is on record as “none” in assay [4] (CRTH2 fused to PK1 ED) and 2.6 fold in assay [4] (CRTH2 fused to PK2 ED). As to PTHRP, the Fold induct. result in assay [2] was “none”. For `COC(=O)[C@H](CCCN=C(N)N)NC(=O)CCCc1c(-c2ccccc2)[nH]c2c(F)cc(F)cc12` [L803,087], the Fold induct. in assay [5] (SSTR4 fused to PK1 ED) came out at 1.8 fold; in assay [5] (SSTR4 fused to PK2 ED), 2.1 fold. The molecule `O=C1CCCN1CC#CCN1CCCC1` [Oxotremorine] registered a Fold induct. in assay [1] (CHRM2 fused to PK1 ED) of 1.6 fold.

Turning to CCL20, the Fold induct. in assay [6] (CCR6 fused to PK1 ED) is 1.4 fold; in assay [6] (CCR6 fused to PK2 ED), 6.5 fold.

B1: Relaxin-3 (protein)
chain: RAAPYGVRLCGREFIRAVIFTCGGSRWRRSDILAHEAMGDTFPDADADEDSLAGELDEAMGSSEWLALTKSPQAFYRGRPSWQGTPGVLRGSRDVLAGLSSSCCKWGCSKSEISSLC
notes: ligand employed for SALPR
On to B1, for which the Fold induct. result is “none” in assay [7] (SALPR fused to PK1 ED) and 1.8 fold in assay [7] (SALPR fused to PK2 ED).

B2: CCL22 (protein)
chain: GPYGANMEDSVCCRDYVRYRLPLRVVKHFYWTSDSCPRPGVVLLTFRDKEICADPRVPWVKMILNKLSQ
notes: ligand employed for CCR4
For the molecule B2, the results for the Fold induct. in assay [8] (CCR4 fused to PK1 ED) and in assay [8] (CCR4 fused to PK2 ED) were 18.9 fold and 3 fold, respectively.

(Values after patent US8101373B2, “β-galactosidase donor fragments” (Discoverx Corporation, priority 2007, dated 2012).)
